The results in this text go back to paper PMC12207370, “Macrocyclic Peptide Probes for Immunomodulatory Protein CD59: Potent Modulators of Bacterial Toxin Activity and Antibody‐Dependent Cytotoxicity” (Angewandte Chemie (International Ed. in English), 2025).

The target of this assay is T1, biotinylated CD59 (Homo sapiens, UniProt P13987).
T1 construct: Recombinant soluble human CD59 with an additional C-terminal cysteine residue
T1 sequence (P13987 26-102 limits assumed): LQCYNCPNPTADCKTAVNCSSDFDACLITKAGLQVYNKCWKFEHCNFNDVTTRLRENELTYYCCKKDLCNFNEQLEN
The assay can be described thus: mRNA-display cyclic peptide screen against CD59-biotin, NGS abundance after 6th selection round. The conditions noted are these: for Percentage Seq I: counts normalised by total counts of sample Seq I; for Percentage Seq I / Percentage Seq II: percentage of the pool; for Percentage Seq I / Percentage Seq II / Percentage Average / Percentage of the pool, averaged across the two sequencing samples / Percentage of the pool, Seq I / Percentage of the pool, Seq II: sheet R6; for Percentage Seq II: counts normalised by total counts of sample Seq II; for Percentage Average: percentage of the pool averaged across the two sequencing samples; for Counts Seq I / Counts Seq II: raw NGS counts of peptide sequence; for Counts Seq I: sequencing sample Seq I; for Counts Seq I / Counts Seq II / Counts (raw counts for peptide sequence), Seq I / Counts (raw counts for peptide sequence), Seq II: sheet R6 (6th selection round); for Counts Seq II: sequencing sample Seq II; for Counts (raw counts for peptide sequence), Seq I: NGS sample Seq I; for Counts (raw counts for peptide sequence), Seq II: NGS sample Seq II; for Percentage of the pool, averaged across the two sequencing samples: average of Seq I and Seq II; for Percentage of the pool, Seq I: counts normalised by total counts of NGS sample Seq I; for Percentage of the pool, Seq II: counts normalised by total counts of NGS sample Seq II. The method, boiled down: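 Peptide–mRNA fusions were made by in vitro translation with a customised PURE express kit. The kit lacked release factor 1 and methionine and was supplemented with […] initiator tRNA carrying N-chloroacetyl-d-tyrosine. Thioether macrocycles were formed, then enriched and amplified over iterative rounds on CD59-biotin immobilised on streptavidin beads. NGS read counts per sequence were recorded after the 6th selection round.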

Turning to TILGNKHYVRG, the “Percentage Seq I” value amounted to 0.140%, the “Percentage Seq II” value was found to be 0.160%, the “Percentage Average” value was determined as 0.150% and the “Counts Seq I” value amounted to 614. For the same sequence, the “Counts Seq II” value is listed as 69.
In the same order, the values of CYGGRTFIYARS are 0.027%, 0.016%, 0.021%, 117 and 7.
As to ARGGPTWSRG, the “Percentage Seq I” value is listed as 0.034%, the “Percentage Seq II” value was found to be 0.037%, the “Percentage Average” value was 0.035% and the “Counts Seq I” value was determined as 147. Further, the “Counts Seq II” value turned out to be 16.
In the same order, the values of GRLNECHAIWP are 0.112%, 0.104%, 0.108%, 488 and 45.
In the same order, the values of CFSHRRLEYGV are 0.045%, 0.046%, 0.046%, 197 and 20.
As to WILGSRWWTRS, the “Percentage Seq I” value amounted to 0.097%, the “Percentage Seq II” value is 0.111%, the “Percentage Average” value was 0.104% and the “Counts Seq I” value was found to be 424. In addition, the “Counts Seq II” value is recorded as 48.
As for YLSGSSNFARG, the “Counts (raw counts for peptide sequence), Seq I” value was found to be 48; the “Counts (raw counts for peptide sequence), Seq II” value is 7; the “Percentage of the pool, averaged across the two sequencing samples” value worked out at 0.014%; the “Percentage of the pool, Seq I” value stood at 0.011%. For the same sequence, the “Percentage of the pool, Seq II” value came to 0.016%.
CFSARAVLDGGW: the “Counts (raw counts for peptide sequence), Seq I” value came out at 59; the “Counts (raw counts for peptide sequence), Seq II” value came to 3; the “Percentage of the pool, averaged across the two sequencing samples” value is given as 0.010%; the “Percentage of the pool, Seq I” value is reported as 0.013%. For the same sequence, the “Percentage of the pool, Seq II” value was determined as 0.007%.
Consider CFLYRNNPDSV, for which the “Percentage Seq I” value is recorded as 0.069%, the “Percentage Seq II” value is 0.067%, the “Percentage Average” value is listed as 0.068% and the “Counts Seq I” value stood at 303. The “Counts Seq II” value amounted to 29.
In the same order, the values of CLRRSYEATSI are 0.020%, 0.021%, 0.021%, 88 and 9.
In the same order, the values of CFASRTLLNTSV are 0.102%, 0.104%, 0.103%, 446 and 45.
In the same order, the values of IARGDRNHQFY are 0.296%, 0.251%, 0.273%, 1296 and 108.
As to CFQNRMAYGDI, the “Counts (raw counts for peptide sequence), Seq I” value turned out to be 34; the “Counts (raw counts for peptide sequence), Seq II” value came out at 7; the “Percentage of the pool, averaged across the two sequencing samples” value worked out at 0.012%; the “Percentage of the pool, Seq I” value came out at 0.008%. Further, the “Percentage of the pool, Seq II” value came out at 0.016%.
With AVWGSAHDRWE, the “Percentage Seq I” value amounted to 0.044%, the “Percentage Seq II” value stood at 0.046%, the “Percentage Average” value is on record as 0.045% and the “Counts Seq I” value was 193. The “Counts Seq II” value turned out to be 20.
With CFAYRTHTTAV, the “Counts (raw counts for peptide sequence), Seq I” value was determined as 63; the “Counts (raw counts for peptide sequence), Seq II” value is recorded as 6; the “Percentage of the pool, averaged across the two sequencing samples” value came to 0.014%; the “Percentage of the pool, Seq I” value amounted to 0.014%. The “Percentage of the pool, Seq II” value was 0.014%.
Turning to WRDRFDQCVI, the “Counts (raw counts for peptide sequence), Seq I” value is 37; the “Counts (raw counts for peptide sequence), Seq II” value is listed as 5; the “Percentage of the pool, averaged across the two sequencing samples” value turned out to be 0.010%; the “Percentage of the pool, Seq I” value stood at 0.00846%. Moreover, the “Percentage of the pool, Seq II” value is recorded as 0.012%.
Regarding CYGGRTFTYAWS, the “Percentage Seq I” value was 0.241%, the “Percentage Seq II” value was 0.306%, the “Percentage Average” value is on record as 0.274% and the “Counts Seq I” value was determined as 1056. Moreover, the “Counts Seq II” value turned out to be 132.
In the same order, the values of SWTWGNRSSARG are 0.025%, 0.035%, 0.030%, 110 and 15.
In the case of GRRNECLSRTS, the “Counts (raw counts for peptide sequence), Seq I” value is reported as 68; the “Counts (raw counts for peptide sequence), Seq II” value was 3; the “Percentage of the pool, averaged across the two sequencing samples” value was determined as 0.011%; the “Percentage of the pool, Seq I” value is 0.016%. The “Percentage of the pool, Seq II” value is 0.007%.
As to QPFWGCRTVAYS, the “Percentage Seq I” value was determined as 0.033%, the “Percentage Seq II” value is reported as 0.049%, the “Percentage Average” value turned out to be 0.041% and the “Counts Seq I” value came out at 144. Moreover, the “Counts Seq II” value is 21.
Take WSTRERQISC: the “Counts (raw counts for peptide sequence), Seq I” value was determined as 70; the “Counts (raw counts for peptide sequence), Seq II” value is 3; the “Percentage of the pool, averaged across the two sequencing samples” value was found to be 0.011%; the “Percentage of the pool, Seq I” value was 0.016%. Also, the “Percentage of the pool, Seq II” value is on record as 0.007%.
SAWGNRQIQYF: the “Percentage Seq I” value was determined as 0.023%, the “Percentage Seq II” value was 0.030%, the “Percentage Average” value worked out at 0.027% and the “Counts Seq I” value amounted to 102. In addition, the “Counts Seq II” value is 13.
With PAWGNRQIQYY, the “Counts (raw counts for peptide sequence), Seq I” value was 58; the “Counts (raw counts for peptide sequence), Seq II” value is on record as 3; the “Percentage of the pool, averaged across the two sequencing samples” value was determined as 0.010%; the “Percentage of the pool, Seq I” value is 0.013%. In addition, the “Percentage of the pool, Seq II” value was determined as 0.007%.
As for YIYWSFTSARG, the “Percentage Seq I” value amounted to 0.050%, the “Percentage Seq II” value is recorded as 0.032%, the “Percentage Average” value came to 0.041% and the “Counts Seq I” value is 219. Moreover, the “Counts Seq II” value was determined as 14.
For DPYCPFFPEFR, the “Counts (raw counts for peptide sequence), Seq I” value was determined as 52; the “Counts (raw counts for peptide sequence), Seq II” value is 5; the “Percentage of the pool, averaged across the two sequencing samples” value is reported as 0.012%; the “Percentage of the pool, Seq I” value was 0.012%. Further, the “Percentage of the pool, Seq II” value worked out at 0.012%.
Consider WTRGSKDYARG, for which the “Counts (raw counts for peptide sequence), Seq I” value is 49; the “Counts (raw counts for peptide sequence), Seq II” value was 5; the “Percentage of the pool, averaged across the two sequencing samples” value came to 0.011%; the “Percentage of the pool, Seq I” value is 0.011%. The “Percentage of the pool, Seq II” value came out at 0.012%.
Turning to FVSGNSRFRRE, the “Percentage Seq I” value came out at 0.062%, the “Percentage Seq II” value is 0.070%, the “Percentage Average” value came to 0.066% and the “Counts Seq I” value was found to be 270. Besides, the “Counts Seq II” value is 30.
